From article PMC9922763

Target: synthetic IAPP, used as monomer and as sonicated preformed fibrils (seeds) (UniProt P10997)

Sequence of synthetic IAPP, used as monomer and as sonicated preformed fibrils (seeds) (from UniProt P10997 34-70) (peptide) (P10997 34-70): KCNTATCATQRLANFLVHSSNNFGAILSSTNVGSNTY

synthetic IAPP, used as monomer and as sonicated preformed fibrils (seeds) (from UniProt P10997 34-70) (peptide)
lag phase of ThT fibril formation of 2.5 µM monomeric IAPP after adding IAPP seeds corresponding to 100 nM monomeric peptide (240 min without seeds); PBS pH 7.4, 37°C: 20 min
